Test results from publication doi:10.1101/2023.06.26.546551, “Unmasking Crucial Residues in Adipose Triglyceride Lipase (ATGL) for Co-Activation with Comparative Gene Identification-58 (CGI-58)” (bioRxiv, 2023).
Positions count from the first letter of the chain named.

How the values were obtained:
Experiment in all cases: cell-based or functional assay
[1] = molecular target: T1, smt3-mATGL288-StrepII I212A (mouse, UniProt Q8BJ56 1-288, I212A)
T1 sequence (looked up): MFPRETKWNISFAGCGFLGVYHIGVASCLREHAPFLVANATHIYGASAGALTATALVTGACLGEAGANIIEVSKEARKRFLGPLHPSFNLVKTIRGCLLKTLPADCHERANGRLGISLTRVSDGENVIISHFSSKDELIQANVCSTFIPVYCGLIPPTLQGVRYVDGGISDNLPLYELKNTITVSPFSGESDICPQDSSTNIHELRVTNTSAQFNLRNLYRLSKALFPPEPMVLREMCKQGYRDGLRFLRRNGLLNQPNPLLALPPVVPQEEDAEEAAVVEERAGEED

[2] = molecular target: T2, smt3-mATGL288-StrepII N209A (mouse, UniProt Q8BJ56 1-288, N209A)
T2 sequence (looked up): T1 sequence (looked up) with N209A, A212I

[3] = molecular target: T3, smt3-mATGL288-StrepII N215A (mouse, UniProt Q8BJ56 1-288, N215A)
T3 sequence (looked up): T1 sequence (looked up) with A212I, N215A

[4] = molecular target: T4, smt3-mATGL288-StrepII I212S (mouse, UniProt Q8BJ56 1-288, I212S)
T4 sequence (looked up): T1 sequence (looked up) with A212S

[5] = molecular target: T5, smt3-mATGL288-StrepII (mouse adipose triglyceride lipase truncated after D288), wild type (mouse, UniProt Q8BJ56 1-288)
T5 sequence (looked up): T1 sequence (looked up) with A212I

- EC50 of mCGI-58 for co-activation of the TG hydrolase activity of mATGL288 I212A (25 ug bacterial lysate, purified mCGI-58 up to 2300 nM) [1]: ~500 nM
- EC50 of mCGI-58 for co-activation of the TG hydrolase activity of mATGL288 N209A (25 ug bacterial lysate, purified mCGI-58 up to 2300 nM) [2]: ~500 nM
- EC50 of mCGI-58 for co-activation of the TG hydrolase activity of mATGL288 N215A (25 ug bacterial lysate, purified mCGI-58 up to 2300 nM) [3]: ~200 nM
- EC50 of mCGI-58 for co-activation of the TG hydrolase activity of mATGL288 I212S (25 ug bacterial lysate, purified mCGI-58 up to 2300 nM) [4]: ~200 nM
- EC50 of mCGI-58 for co-activation of the TG hydrolase activity of mATGL288 (25 ug bacterial lysate, purified mCGI-58 up to 2300 nM) [5]: 178 nM
B1: smt3-mCGI-58-His6 (mouse comparative gene identification-58) (natural protein, UniProt Q9DBL9 1-351, looked up)
chain: MKAMAAEEEVDSADAGGGSGWLTGWLPTWCPTSTSHLKEAEEKMLKCVPCTYKKEPVRISNGNRIWTLMFSHNISSKTPLVLLHGFGGGLGLWALNFEDLSTDRPVYAFDLLGFGRSSRPRFDSDAEEVENQFVESIEEWRCALRLDKMILLGHNLGGFLAAAYSLKYPSRVSHLILVEPWGFPERPDLADQERPIPVWIRALGAALTPFNPLAGLRIAGPFGLSLVQRLRPDFKRKYSSMFEDDTVTEYIYHCNVQTPSGETAFKNMTIPYGWAKRPMLQRIGGLHPDIPVSVIFGARSCIDGNSGTSIQSLRPKSYVKTIAILGAGHYVYADQPEEFNQKVKEICHTVD
